Substitutions are numbered along the chain they refer to. Names may count otherwise.
T1: TAFV GP on VSV pseudotype particles (Tai Forest virus (TAFV), UniProt Q66810 33-676)
T1 sequence: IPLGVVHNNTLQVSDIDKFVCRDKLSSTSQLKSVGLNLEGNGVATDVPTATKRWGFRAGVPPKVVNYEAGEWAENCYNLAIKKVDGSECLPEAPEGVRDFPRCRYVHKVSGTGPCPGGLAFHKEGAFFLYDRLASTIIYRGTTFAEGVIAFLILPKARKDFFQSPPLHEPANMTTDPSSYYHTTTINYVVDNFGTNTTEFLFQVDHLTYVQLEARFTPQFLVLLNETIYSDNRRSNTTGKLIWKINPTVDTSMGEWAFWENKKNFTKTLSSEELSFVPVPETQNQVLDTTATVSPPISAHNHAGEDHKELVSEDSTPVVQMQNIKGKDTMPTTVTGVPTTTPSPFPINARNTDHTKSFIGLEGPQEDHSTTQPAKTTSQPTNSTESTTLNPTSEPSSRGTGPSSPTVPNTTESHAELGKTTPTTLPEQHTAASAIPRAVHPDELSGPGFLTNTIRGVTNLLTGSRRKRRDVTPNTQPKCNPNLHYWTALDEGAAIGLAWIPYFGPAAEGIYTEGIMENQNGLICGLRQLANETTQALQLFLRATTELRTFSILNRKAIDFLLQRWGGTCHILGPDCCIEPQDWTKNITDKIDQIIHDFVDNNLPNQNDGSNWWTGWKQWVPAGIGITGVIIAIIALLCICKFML

T2: EBOV GP on rVSV particles (Ebola virus (EBOV), UniProt Q05320 33-676)
T2 sequence: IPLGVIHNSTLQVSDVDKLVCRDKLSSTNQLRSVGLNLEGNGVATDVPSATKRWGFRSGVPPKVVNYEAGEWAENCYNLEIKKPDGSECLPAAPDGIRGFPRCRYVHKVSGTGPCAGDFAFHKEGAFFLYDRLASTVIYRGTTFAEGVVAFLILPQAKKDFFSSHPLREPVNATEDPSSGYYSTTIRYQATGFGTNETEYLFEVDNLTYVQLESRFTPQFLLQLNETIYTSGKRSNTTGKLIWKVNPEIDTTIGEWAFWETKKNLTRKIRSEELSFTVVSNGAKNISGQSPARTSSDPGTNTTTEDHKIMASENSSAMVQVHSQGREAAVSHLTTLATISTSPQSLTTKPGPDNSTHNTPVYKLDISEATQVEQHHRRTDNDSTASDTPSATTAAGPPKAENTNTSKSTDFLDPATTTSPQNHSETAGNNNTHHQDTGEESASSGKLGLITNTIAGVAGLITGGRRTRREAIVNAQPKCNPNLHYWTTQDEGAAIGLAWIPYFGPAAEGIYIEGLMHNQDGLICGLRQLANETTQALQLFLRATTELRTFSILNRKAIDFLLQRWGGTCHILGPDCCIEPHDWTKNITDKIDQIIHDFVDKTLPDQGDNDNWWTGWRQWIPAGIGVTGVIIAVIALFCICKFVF

T3: SUDV GP on rVSV particles (Sudan virus (SUDV), UniProt Q66814 33-676)
T3 sequence: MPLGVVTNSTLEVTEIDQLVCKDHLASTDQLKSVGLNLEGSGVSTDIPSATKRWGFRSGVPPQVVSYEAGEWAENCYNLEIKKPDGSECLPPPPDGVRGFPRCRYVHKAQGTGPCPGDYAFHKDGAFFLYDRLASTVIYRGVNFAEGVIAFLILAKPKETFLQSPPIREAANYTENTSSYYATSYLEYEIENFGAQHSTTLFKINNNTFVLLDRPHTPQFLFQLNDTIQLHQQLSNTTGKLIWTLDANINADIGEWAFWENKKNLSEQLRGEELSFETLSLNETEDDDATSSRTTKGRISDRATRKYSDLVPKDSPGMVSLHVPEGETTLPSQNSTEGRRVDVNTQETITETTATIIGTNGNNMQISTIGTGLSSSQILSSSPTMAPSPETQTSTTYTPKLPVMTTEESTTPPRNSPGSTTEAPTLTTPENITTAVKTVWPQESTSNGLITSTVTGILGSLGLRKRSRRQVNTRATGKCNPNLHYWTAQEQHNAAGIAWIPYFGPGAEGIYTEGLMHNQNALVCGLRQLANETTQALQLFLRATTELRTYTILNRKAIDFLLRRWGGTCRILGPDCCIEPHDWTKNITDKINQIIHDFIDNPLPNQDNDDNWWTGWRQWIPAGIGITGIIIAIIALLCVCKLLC

T4: RESTV GP on rVSV particles (Reston virus (RESTV), UniProt Q66799 34-677)
T4 sequence: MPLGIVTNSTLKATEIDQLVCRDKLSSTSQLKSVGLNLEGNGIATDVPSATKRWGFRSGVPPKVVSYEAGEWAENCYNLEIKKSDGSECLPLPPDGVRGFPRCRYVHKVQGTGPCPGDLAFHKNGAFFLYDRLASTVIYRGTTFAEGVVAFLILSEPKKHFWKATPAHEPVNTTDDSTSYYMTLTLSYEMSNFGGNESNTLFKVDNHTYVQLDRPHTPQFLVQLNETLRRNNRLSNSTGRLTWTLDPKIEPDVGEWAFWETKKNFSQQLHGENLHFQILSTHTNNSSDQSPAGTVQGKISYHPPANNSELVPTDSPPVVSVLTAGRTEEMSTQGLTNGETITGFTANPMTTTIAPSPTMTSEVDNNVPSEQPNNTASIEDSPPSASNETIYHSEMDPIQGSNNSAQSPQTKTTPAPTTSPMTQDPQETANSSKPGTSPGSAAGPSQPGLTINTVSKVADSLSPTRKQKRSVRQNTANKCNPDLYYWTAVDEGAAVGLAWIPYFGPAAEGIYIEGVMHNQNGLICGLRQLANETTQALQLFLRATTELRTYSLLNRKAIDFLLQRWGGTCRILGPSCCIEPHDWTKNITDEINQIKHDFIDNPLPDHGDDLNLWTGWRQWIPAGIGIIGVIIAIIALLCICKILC

B1: PE-87 D110A (antibody, V domains shown)
VH: QVQLVQSGVTLVQPGGSLRVSCAASGFTFSSYAMSWVRQAPGKGLEWVSAISGLGGSTYYADSVKGRFTISRDNSKNTLYLQMNSLRAEDTAVYYCAKDHRVWAAGYHFAYWGQGALVTVSS
VL: DIVLTQSPSTLSASVGDRVTITCRASQSISSWLAWYQQKPGEAPKLLISDASSLESGVPSRFSGSGSGTEFTLTISSLQPDDFATYYCQQYYSSPTFGGGTKVEIK
B2: mAb PE-87 (antibody, V domains shown)
VH: B1 VH with A110D
VL: B1 VL
B3: PE-87 Y111A (antibody, V domains shown)
VH: B1 VH with A110D, Y111A
VL: B1 VL

Tests used:
[1] = target: T1, TAFV GP on VSV pseudotype particles; assay: cell-based or functional assay
[2] = target: T2, EBOV GP on rVSV particles; assay: cell-based or functional assay
[3] = target: T3, SUDV GP on rVSV particles; assay: cell-based or functional assay
[4] = target: T4, RESTV GP on rVSV particles; assay: cell-based or functional assay
[5] = target: BDBV GP on rVSV particles (Bundibugyo virus (BDBV)); assay: cell-based or functional assay
[6] = target: EBOV GPCL (cleaved soluble EBOV GP) (Ebola virus (EBOV), UniProt Q05320 33-650); assay: BLI (OctetRed), IgG on anti-human Fc sensors, GPCL in solution, 1:1 fit

Row | Binder | IC50, half-maximal neutralization of viral infectivity (rVSV-GP) [1] [nM] | IC50, half-maximal neutralization of viral infectivity (rVSV-GP) [2] [nM] | IC50, half-maximal neutralization of viral infectivity (rVSV-GP) [3] [nM] | IC50, half-maximal neutralization of viral infectivity (rVSV-GP) [4] [nM] | IC50, half-maximal neutralization of viral infectivity (rVSV-GP) [5] [nM] | Kd [6] [nM]
1 | B1 | 2.1 | 2 | 1.5 | 0.4 | 0.9 | –
2 | B2 | – | – | – | – | – | < 0.001
3 | B3 | 1.1 | 0.8 | 0.8 | 0.1 | 0.4 | –
